Results on one molecule are retold here after US11078259B2, “Methods and compositions for promoting thermogenic potential” (Joslin Diabetes Center, Inc., priority 2015, dated 2021).

This assay concerns hBAT progenitors with hUCP1-promoter-Luc/GFP. As to the kind of experiment: Transplantation of UCP1 reporter progenitors into nude mice, in vivo bioluminescent imaging. More on the design: species or system BALB/c athymic nude mice. The settings on record: mice implanted with hBAT progenitors; 3.3 nM BMP7 pretreatment of progenitors 6 days. The source says:
FIG. 7A depicts a transgenic UCP1 reporter system for measuring UCP1 gene expression. A bicistronic luciferase and green fluorescent protein (GFP) reporter was coupled to a 4.1 kb human UCP1 promoter fragment. FIG. 7B depicts the organization of plasmid pLV.ExBi.P/Puro-hUCP1promoter-Luc(firefly)-T2A-hrGFP, which contains the UCP1 reporter system described in FIG. 7A. FIG. 7C depicts time-lapse microscopy of differentiating hBAT-SVF cells containing the UCP1 reporter system. UCP1 expression was monitored by visualization of GFP. FIG. 7D depicts that in hBAT-SVF and hWAT-SVF cells stably expressing the reporter construct, luciferase activity (Right) was strongly correlated with endogenous UCP1 gene expression (Left) during the course of differentiation (see FIG. 2A and Methods). For determination of UCP1 mRNA levels, total RNAs were isolated on day 0, 2, 3, 5, 9, 12, 15 and 18; for luciferase activity assay, cell lysates were collected on day 0, 6, 9 and 18. Data are presented as fold changes compared to hWAT-SVF on day 0 (mean±s.e.m., n=3). […]
Human immortalized white and brown fat progenitors with hUCP1-promoter-Luc/GFP were grown in the presence and absence of 3.3 nM BMP7 for 6 days to reach confluence. […] The luminescence intensity in regions of interest from each image was quantified to examine the viability of the implanted cells. […]

“Also recorded” adds a separate entry of the source.

B1: BMP7: Recombinant human BMP7, an inducer of brown adipogenesis (protein, UniProt P18075 293-431, looked up)
Bone morphogenetic protein 7: STGSKQRSQNRSKTPKNQEALRMANVAENSSSDQRQACKKHELYVSFRDLGWQDWIIAPEGYAAYYCEGECAFPLNSYMNATNHAIVQTLVHFINPETVPKPCCAPTQLNAISVLYFDDSSNVILKKYRNMVVRACGCH
Take B1: the “luciferase activity (UCP1 reporter) in vivo” value is recorded as “further induced; also recorded: increased further”.
